*1 amine or outer side, *2 acyl side, *3 side chain or, on linkers, in order; H or OH if unused. Where no end group is shown, it is not given here. [ ]: non-standard residue; d: D form. pT = C[C@@H](OP(=O)(O)O)[C@H](N)C(=O)O; Suc = O=C(CCC(=O)[*:2])[*:1]
T1: TbPar42 PPIase domain (264-383) (T. brucei, succinyl on the N-terminus; phosphothreonine at position 2; C-terminal amide / 15N-labelled, wild type; entity position 1 = Pro264 (offset 263), so checks are His271, Cys333, Leu374; residual GP from)
T1 chain: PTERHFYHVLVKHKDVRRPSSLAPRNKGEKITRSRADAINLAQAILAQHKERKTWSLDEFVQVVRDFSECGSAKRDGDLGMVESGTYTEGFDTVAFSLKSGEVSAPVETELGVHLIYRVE


How the values were obtained:
[1] = target: TbPar42 N-terminal extended FHA domain (1-177) (Trypanosoma brucei, UniProt Q57XM6 1-177); assay: NMR titration; unlabelled Ala-Glu-Ala-pThr-Ala-Glu-Xaa peptide added stepwise up to 8 mM to 250 µM 15N-labelled NterFHA; 1H-15N-HSQC, 27 °C; mean KD values; settings: both partners purified
[2] = target: T1, TbPar42 PPIase domain (264-383); assay: NMR titration; 440 uM 15N-labelled NterFHA or PPIase in 50 mM potassium phosphate, pH 6.26, 90%/10% H2O/D2O; peptide added stepwise to 13 mM; 1H-15N-HSQC or SOFAST spectra, 700 MHz, 27 °C; settings: both partners purified

Row | Binder | Kd [1] | Kd [2]
1 | AEA[pT]AEE [Ala-Glu-Ala-pThr-Ala-Glu-Glu] | 5.4 mM | 
2 | AEA[pT]AEV [Ala-Glu-Ala-pThr-Ala-Glu-Val] | 3.9 mM | 
3 | AEA[pT]AED [Ala-Glu-Ala-pThr-Ala-Glu-Asp] | 3.4 mM | 
4 | AEA[pT]AES [Ala-Glu-Ala-pThr-Ala-Glu-Ser] | 3.1 mM | 
5 | AEA[pT]AEI [Ala-Glu-Ala-pThr-Ala-Glu-Ile] | 4.1 mM | 
6 | Suc-A[pT]PA-NH2 (SMILES C[C@H](NC(=O)[C@@H]1CCCN1C(=O)[C@@H](NC(=O)[C@H](C)NC(=O)CCC(=O)O)[C@@H](C)OP(=O)(O)O)C(N)=O, also called phosphorylated model peptide; source: synthetic peptide, bought: CASLO) [Suc-Ala-pThr-Pro-Ala-NH2] |  | ~10 mM

— paper PMC6468809, “Structural Analysis of the 42 kDa Parvulin of Trypanosoma brucei” (Biomolecules, 2019)
